Patent publication US20150133367A1 (University of Pennsylvania, published 2015)
Values joined by “and” are separate entries in the source; they are usually repeats but may differ in a detail not shown here. Identical values can stand only once. Like-named read-outs stand apart in the source and are kept apart here. Positions of bridges follow the written chain, without caps; N, C: chain ends. Non-standard residues stand in square brackets, D forms with d. No end group written: not given here. alpha,alpha'‑meta‑xylylene = alpha,alpha'-meta-xylylene linker (from a,a'-dibromo-meta-xylene) bridging two cysteines via bis-thioether; βAla = NCCC(=O)O

T1: Calpain-1
T1 chain 1: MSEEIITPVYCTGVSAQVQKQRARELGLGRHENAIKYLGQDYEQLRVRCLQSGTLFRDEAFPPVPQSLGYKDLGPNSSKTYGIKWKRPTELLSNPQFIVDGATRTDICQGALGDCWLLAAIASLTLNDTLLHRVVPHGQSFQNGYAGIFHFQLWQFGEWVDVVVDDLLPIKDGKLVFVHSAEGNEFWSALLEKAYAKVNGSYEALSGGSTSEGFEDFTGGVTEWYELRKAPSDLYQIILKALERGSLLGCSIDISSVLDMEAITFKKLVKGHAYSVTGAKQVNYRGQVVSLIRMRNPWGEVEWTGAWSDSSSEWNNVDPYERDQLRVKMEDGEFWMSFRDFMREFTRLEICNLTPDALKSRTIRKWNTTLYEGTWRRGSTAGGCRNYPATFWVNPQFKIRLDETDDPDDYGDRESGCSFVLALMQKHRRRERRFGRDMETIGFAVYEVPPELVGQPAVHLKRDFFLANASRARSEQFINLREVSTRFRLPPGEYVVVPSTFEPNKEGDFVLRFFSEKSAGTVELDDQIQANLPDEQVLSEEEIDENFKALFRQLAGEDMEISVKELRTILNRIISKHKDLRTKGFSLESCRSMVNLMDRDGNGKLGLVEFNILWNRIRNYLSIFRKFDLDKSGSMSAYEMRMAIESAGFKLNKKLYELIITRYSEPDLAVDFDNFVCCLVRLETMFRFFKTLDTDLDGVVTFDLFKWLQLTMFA
T1 chain 2: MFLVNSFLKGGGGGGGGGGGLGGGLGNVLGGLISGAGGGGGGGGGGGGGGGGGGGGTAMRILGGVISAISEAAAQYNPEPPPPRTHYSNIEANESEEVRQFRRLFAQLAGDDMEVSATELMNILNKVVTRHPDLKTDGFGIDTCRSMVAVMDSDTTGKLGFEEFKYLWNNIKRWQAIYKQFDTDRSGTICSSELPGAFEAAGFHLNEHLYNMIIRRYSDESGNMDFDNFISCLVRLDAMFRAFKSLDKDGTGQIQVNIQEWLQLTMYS

T2: Cathepsin K (UniProt P43235 115-329)
T2 sequence (looked up): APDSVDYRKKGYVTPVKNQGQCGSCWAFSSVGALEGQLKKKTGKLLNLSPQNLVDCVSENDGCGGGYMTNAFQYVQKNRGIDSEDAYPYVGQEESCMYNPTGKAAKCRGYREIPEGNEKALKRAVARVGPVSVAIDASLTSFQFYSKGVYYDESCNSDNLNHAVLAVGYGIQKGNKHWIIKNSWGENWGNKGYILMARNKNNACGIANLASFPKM


Columns and labels:
Experiment in all cases: fluorescence-based enzyme inhibition assay
Calpain-1 [1] = target: T1, Calpain-1
Cathepsin K [2] = target: T2, Cathepsin K
Cathepsin L [3] = target: T3, Cathepsin L (UniProt P07711 114-333)
T3 sequence (P07711 114-333 limits assumed): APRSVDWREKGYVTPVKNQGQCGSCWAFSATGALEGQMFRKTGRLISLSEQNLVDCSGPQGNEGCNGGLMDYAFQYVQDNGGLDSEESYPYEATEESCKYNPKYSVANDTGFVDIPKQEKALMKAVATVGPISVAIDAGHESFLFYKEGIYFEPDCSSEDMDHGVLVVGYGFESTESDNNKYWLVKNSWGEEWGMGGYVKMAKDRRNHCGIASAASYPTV

Cathepsin S [4] = target: T4, Cathepsin S (UniProt P25774 115-331)
T4 sequence (P25774 115-331 limits assumed): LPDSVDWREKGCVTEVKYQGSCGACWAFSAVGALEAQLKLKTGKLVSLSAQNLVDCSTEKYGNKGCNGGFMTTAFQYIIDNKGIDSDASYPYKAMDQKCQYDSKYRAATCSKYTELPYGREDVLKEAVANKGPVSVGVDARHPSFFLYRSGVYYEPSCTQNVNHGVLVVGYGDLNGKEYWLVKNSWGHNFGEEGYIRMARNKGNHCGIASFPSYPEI

Cathepsin S [5] = target: T4, Cathepsin S; remark: listed apart in the source
Cathepsin S [6] = target: T4, Cathepsin S; remark: listed apart in the source
Cathepsin L [7] = target: T3, Cathepsin L; remark: listed apart in the source
Cathepsin K [8] = target: T2, Cathepsin K; remark: listed apart in the source
Calpain-1 [9] = target: T1, Calpain-1

Ki (Calpain-1 [1]) [µM]	Ki (Cathepsin L [3]) [µM]	Ki (Cathepsin S [4]) [µM]	Binder	also measured
27.6	–	–	DPPKYCELLC (linker 6-10 via alpha,alpha'‑meta‑xylylene) [DPPKYCELLC (SEQ ID NO:71)]	–
45.3	–	–	PPPKYCELLC (linker 6-10 via alpha,alpha'‑meta‑xylylene) [PPPKYCELLC (SEQ ID NO:73)]	–
–	–	–	SCEVVCKMTGLKVPL (linker 2-6 via alpha,alpha'‑meta‑xylylene, 15-mer) [SCEVVCKMTGLKVPL (SEQ ID NO:56)]	Ki (Cathepsin K [2]): 22.7 µM
5.09	–	–	IXPKYCELLC (Cys6 and Cys10 (i,i+4) linked by alpha,alpha'-meta-xylylene; residue 2 pf5 = pentafluorophenylalanine) [I(pf5)PKYCELLC (SEQ ID NO:77)]	–
7.5	5.1	–	IPPKYRCLLAC (linker 7-11 via alpha,alpha'‑meta‑xylylene) [IPPKYRCLLAC (SEQ ID NO:66)]	–
3.6	–	31.5	LGKREVTIPPKYCELLC (linker 13-17 via alpha,alpha'‑meta‑xylylene, 17 amino acids) [LGKREVTIPPKYCELLC (SEQ ID NO:67)]	–
1.3	10.7	41.5	LFKREVTIPPKYCELLC (linker 13-17 via alpha,alpha'‑meta‑xylylene, 17 amino acids) [LFKREVTIPPKYCELLC (SEQ ID NO:68)]	–
27.9	–	–	IPPKYCELFC (linker 6-10 via alpha,alpha'‑meta‑xylylene) [IPPKYCELFC (SEQ ID NO:88)]	–
–	–	–	SCEEVCKPGGP (linker 2-6 via alpha,alpha'‑meta‑xylylene) [SCEEVCKPGGP (SEQ ID NO:47)]	Ki (Cathepsin K [2]): > 100 µM
5.3	69.6	31.3	EVTIPPKYCELLC (linker 9-13 via alpha,alpha'‑meta‑xylylene) [EVTIPPKYCELLC (SEQ ID NO:69)]	–
10.2	39.9	50.2	IPPKYCELLC (linker 6-10 via alpha,alpha'‑meta‑xylylene) [IPPKYCELLC (SEQ ID NO:65)]	–
5.3	37.9	35.9	IPPRYCELLC (linker 6-10 via alpha,alpha'‑meta‑xylylene) [IPPRYCELLC (SEQ ID NO:80)]	–
11	66.2	21.4	IPPKYCEQLC (linker 6-10 via alpha,alpha'‑meta‑xylylene, also called compound (Ia)) [IPPKYCEQLC (SEQ ID NO:85)]	–
30.9	21.4	13.9	IPPKYCEALC (linker 6-10 via alpha,alpha'‑meta‑xylylene) [IPPKYCEALC (SEQ ID NO:86)]	–
–	8.12	16.8	IPPKACELLC (linker 6-10 via alpha,alpha'‑meta‑xylylene) [IPPKACELLC (SEQ ID NO:81)]	–
–	8.8	–	IPPRWCELLC (linker 6-10 via alpha,alpha'‑meta‑xylylene) [IPPRWCELLC (SEQ ID NO:91)]	–
11	38.1	46.3	LPPKYCELLC (linker 6-10 via alpha,alpha'‑meta‑xylylene) [LPPKYCELLC (SEQ ID NO:74)]	–
17.7	24.6	20.7	IPPAYCELLC (linker 6-10 via alpha,alpha'‑meta‑xylylene) [IPPAYCELLC (SEQ ID NO:78)]	–

Ki (Calpain-1 [1]) [µM]	Ki (Cathepsin L [3]) [µM]	Ki (Cathepsin S [4]) [µM]	Binder	also measured
28.9	12.5	15.6	IPPKYCALLC (linker 6-10 via alpha,alpha'‑meta‑xylylene) [IPPKYCALLC (SEQ ID NO:84)]	–
65.6	12.5	26.1	APPKYCELLC (linker 6-10 via alpha,alpha'‑meta‑xylylene) [APPKYCELLC (SEQ ID NO:72)]	–
95.6	–	–	IPPCYRECLA (linker 4-8 via alpha,alpha'‑meta‑xylylene) [IPPCYRECLA (SEQ ID NO:64)]	–
–	–	–	FFEFFCSLMCS (linker 6-10 via alpha,alpha'‑meta‑xylylene) [FFEFFCSLMCS (SEQ ID NO:27)]	Ki (Cathepsin S [5]): 13.1 µM
–	–	–	SCESVCKMTGL (linker 2-6 via alpha,alpha'‑meta‑xylylene) [SCESVCKMTGL (SEQ ID NO:37)]	Ki (Cathepsin S [6]): 10.8 µM; Ki (Cathepsin K [2]): > 100 µM
–	–	–	SCEVVCKMTGP (linker 2-6 via alpha,alpha'‑meta‑xylylene) [SCEVVCKMTGP (SEQ ID NO:44)]	Ki (Cathepsin S [6]): 27.8 µM; Ki (Cathepsin K [2]): 1.34 µM and 0.659 µM
35	–	–	QPPKYCELLC (linker 6-10 via alpha,alpha'‑meta‑xylylene) [QPPKYCELLC (SEQ ID NO:76)]	–
–	–	–	SCESVCKPWGP (linker 2-6 via alpha,alpha'‑meta‑xylylene, also called compound (IIa); quadruple mutant) [SCESVCKPWGP (SEQ ID NO:50)]	Ki (Cathepsin K [2]): 17.2 µM
–	–	–	SCESVCKPWGPKVP (linker 2-6 via alpha,alpha'‑meta‑xylylene, 14-mer) [SCESVCKPWGPKVP (SEQ ID NO:55)]	Ki (Cathepsin K [2]): 16.2 µM
–	–	–	TSEEVCSLMCS (linker 6-10 via alpha,alpha'‑meta‑xylylene) [TSEEVCSLMCS (SEQ ID NO:16)]	Ki (Cathepsin L [7]): 16.7 µM; Ki (Cathepsin S [5]): 52.1 µM
–	–	–	WWEWVCSLMCS (linker 6-10 via alpha,alpha'‑meta‑xylylene, triple mutant) [WWEWVCSLMCS (SEQ ID NO:25)]	Ki (Cathepsin L [7]): 16.1 µM; Ki (Cathepsin S [5]): 6.74 µM; Ki (Cathepsin K [8]): 19.5 µM; Ki (Calpain-1 [9]): 85.5 µM
–	–	–	TSEWVCSLMCS (linker 6-10 via alpha,alpha'‑meta‑xylylene, single mutant) [TSEWVCSLMCS (SEQ ID NO:20)]	Ki (Cathepsin L [7]): 57.1 µM; Ki (Cathepsin S [5]): 33.1 µM
–	–	–	WWEWWCSLMCS (linker 6-10 via alpha,alpha'‑meta‑xylylene, quadruple mutant; also called compound (IVa)) [WWEWWCSLMCS (SEQ ID NO:26)]	Ki (Cathepsin L [7]): 28.1 µM; Ki (Cathepsin S [5]): 1.23 µM; Ki (Cathepsin K [8]): 37.9 µM; Ki (Calpain-1 [9]): 66.7 µM
–	–	–	TWEEVCSLMCS (linker 6-10 via alpha,alpha'‑meta‑xylylene, single mutant) [TWEEVCSLMCS (SEQ ID NO:18)]	Ki (Cathepsin L [7]): 93.9 µM; Ki (Cathepsin S [5]): 29.7 µM; Ki (Cathepsin K [8]): 67.5 µM
–	–	–	WSEEVCSLMCS (linker 6-10 via alpha,alpha'‑meta‑xylylene, single mutant) [WSEEVCSLMCS (SEQ ID NO:17)]	Ki (Cathepsin L [7]): 76 µM; Ki (Cathepsin S [5]): 51 µM; Ki (Calpain-1 [9]): 108 µM
–	–	–	TSEEWCSLMCS (linker 6-10 via alpha,alpha'‑meta‑xylylene, single mutant) [TSEEWCSLMCS (SEQ ID NO:21)]	Ki (Cathepsin L [7]): 105 µM; Ki (Cathepsin S [5]): 80.4 µM
–	–	–	TWEWVCSLMCS (linker 6-10 via alpha,alpha'‑meta‑xylylene, double mutant) [TWEWVCSLMCS (SEQ ID NO:23)]	Ki (Cathepsin L [7]): 33.8 µM; Ki (Cathepsin S [5]): 14.3 µM; Ki (Cathepsin K [8]): 65.7 µM; Ki (Calpain-1 [9]): 88.4 µM
10.7	–	–	[βAla]AIPPKYCELLC (linker 8-12 via alpha,alpha'‑meta‑xylylene) [(b-Ala)AIPPKYCELLC (SEQ ID NO:70)]	–
